This passage reports Kd results from PMC8639777 (Nature, 2021).

Common to all, as to experiment: BLI
A general note: BLI is a label-free optical method that tracks binding on a fibre tip over time.

Assay [1] addresses human ALK glycine-rich domain (GRD), residues 678-1030, wild type (human, UniProt Q9UM73 678-1030).
In assay [2] the target is human ALK GRD (678-1030) E974R (human, UniProt Q9UM73 678-1030, E974R).
Assay [3] deals with human ALK GRD (678-1030) E978R (human, UniProt Q9UM73 678-1030, E978R).
Assay [4] concerns the target human ALK GRD (678-1030) Y966R (human, UniProt Q9UM73 678-1030, Y966R).

Where a chain is given by its changes, count along the chain named. In names and notes the source's numbering stands.

Chain of human ALK glycine-rich domain (GRD), residues 678-1030, wild type (Q9UM73 678-1030): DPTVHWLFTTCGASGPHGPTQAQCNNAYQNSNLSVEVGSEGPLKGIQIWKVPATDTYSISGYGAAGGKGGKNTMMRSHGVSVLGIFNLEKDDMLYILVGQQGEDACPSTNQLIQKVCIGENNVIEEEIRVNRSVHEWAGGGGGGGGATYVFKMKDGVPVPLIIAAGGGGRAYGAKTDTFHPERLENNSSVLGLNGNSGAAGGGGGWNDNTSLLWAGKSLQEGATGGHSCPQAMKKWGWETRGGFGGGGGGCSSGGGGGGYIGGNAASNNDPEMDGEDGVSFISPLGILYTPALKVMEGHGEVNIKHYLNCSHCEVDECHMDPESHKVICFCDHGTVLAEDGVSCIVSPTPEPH
Chain of human ALK GRD (678-1030) E974R (Q9UM73 678-1030 E974R): as the sequence (Q9UM73 678-1030) above, with E297R counted along it
Chain of human ALK GRD (678-1030) E978R (Q9UM73 678-1030 E978R): as the sequence (Q9UM73 678-1030) above, with E301R counted along it
Chain of human ALK GRD (678-1030) Y966R (Q9UM73 678-1030 Y966R): as the sequence (Q9UM73 678-1030) above, with Y289R counted along it

B1: human ALKAL2 ALKAL domain (ALKAL2-AD), residues 71-152, wild type (ligand, UniProt Q6UX46 71-152, looked up)
chain: AEAAGLGPSPEQRVEIVPRDLRMKDKFLKHLTGPLYFSPKCSKHFHRLYHNTRDCTIPAYYKRCARLLTRLAVSPVCMEDKQ
Broadly, the Kd is the concentration at which binding is half-saturated. A high value points to weaker binding. In the case of B1, the Kd in assay [1] turned out to be 0.329 µM; in assay [2] it was 1.41 µM; in assay [3], 6.11 µM; in assay [4] it was 5.12 µM.

B2: human ALKAL2-AD (71-152) R140E (ligand, UniProt Q6UX46 71-152, looked up)
chain: B1 chain with R70E
B2: the Kd in assay [1] was determined as 2.95 µM.

B3: human ALKAL2-AD (71-152) R123E (ligand, UniProt Q6UX46 71-152, looked up)
chain: B1 chain with R53E
In assay [1], B3 gave a Kd of 0.391 µM.
